Article PMC7954794, “Protein context shapes the specificity of SH3 domain-mediated interactions in vivo” (Nature Communications, 2021)

B1: HOF1 (protein, UniProt Q05080 1-669, looked up)
Cytokinesis protein 2: MSYSYEACFWDPNDNGVNILLGHISQGIRSCDSMILFFKQRSELEKDYARRLGAITGKLDKDIGTNMDYGKLNETFNVVLSVEKARAQSHSKQSEILFRQIYTDTKAFAANLQARYTTLSGKIERLRMDKFNKKKGCEVLQKKLQDAQIRFRDLQLNENNMIGAKRVEHNKRELLKWESNSQEYKVQLDVLKQEYKASQKFWIHEWAQLSCELQEMENARISFLQSKLQQFATSSMETYILEQTKMDMLTNHLNSFTAADEISTFSKENGTGRLKHKTSKGDMNSSANWAQMSSISTTSKKTESYMDNIRKLSSQLKETENKRKLASIDKYEKPLPSPEVTMATQFRNSTPVIRNETKVVANPTLSLRSSPVQLQSNVDDSVLRQKPDKPRPIVGEEQLKPDEDSKNPDEKGLMVHKRNQSLSSPSESSSSNPTDFSHIKKRQSMESMTTSVSSMANSIDDSQRFAKSWNSSNRKRKSMSHLQVPSSASSRSDDGGRTPNSAHNLNEDDYNTRRDTSTSTILFKPPVAVRGTSRGHTHRQSMIMQDSSNPIEDALYEMERIQSSSKPGTKTGNIMDERGVVRDRGITVTLPIVTSEGFPVIEYAKAMYPLIGNEAPGLANFHKGDYLLITEIVNKDWYKGEVYDNDRIDRNHRIGLIPYNFIQLLHQGL
B2: HSE1 (protein, UniProt P38753 2-452, looked up)
Class E vacuolar …: SSSAIKIRNALLKATDPKLRSDNWQYILDVCDLVKEDPEDNGQEVMSLIEKRLEQQDANVILRTLSLTVSLAENCGSRLRQEISSKNFTSLLYALIESHSVHITLKKAVTDVVKQLSDSFKDDPSLRAMGDLYDKIKRKAPYLVQPNVPEKHNMSTQADNSDDEELQKALKMSLFEYEKQKKLQEQEKESAEVLPQQQQQHQQQNQAPAHKIPAQTVVRRVRALYDLTTNEPDELSFRKGDVITVLEQVYRDWWKGALRGNMGIFPLNYVTPIVEPSKEEIEKEKNKEAIVFSQKTTIDQLHNSLNAASKTGNSNEVLQDPHIGDMYGSVTPLRPQVTRMLGKYAKEKEDMLSLRQVLANAERSYNQLMDRAANAHISPPVPGPALYAGMTHANNTPVMPPQRQSYQSNEYSPYPSNLPIQHPTNSANNTPQYGYDLGYSVVSQPPPGYEQ

Tested on: Abp1 PPIs
Test: DHFR-PCA of Abp1 SH3-swapped baits (Fig. 2B-D, S2C, S2F);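 for Protein-protein interaction distance between Abp1 SH3-swapped baits, to ABP1: Euclidean distance between DHFR-PCA score profiles of the baits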;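 for Protein-protein interaction distance between Abp1 SH3-swapped baits, to BEM1-2: Euclidean distance between DHFR-PCA score profiles of the baits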;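 for Protein-protein interaction distance between Abp1 SH3-swapped baits, to BOI1: Euclidean distance between DHFR-PCA score profiles of the baits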;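 for Protein-protein interaction distance between Abp1 SH3-swapped baits, to BZZ1-1: Euclidean distance between DHFR-PCA score profiles of the baits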
Assay type: cell-based, Saccharomyces cerevisiae
Conditions: for Protein-protein interaction distance between Abp1 SH3-swapped baits, to ABP1: Abp1 bait with swapped SH3, distance to bait with ABP1 SH3; for Protein-protein interaction distance between Abp1 SH3-swapped baits, to ABP1 / Protein-protein interaction distance between Abp1 SH3-swapped baits, to BBC1 / Protein-protein interaction distance between Abp1 SH3-swapped baits, to BEM1-1 / Protein-protein interaction distance between Abp1 SH3-swapped baits, to BEM1-2 / Protein-protein interaction distance between Abp1 SH3-swapped baits, to BOI1 / Protein-protein interaction distance between Abp1 SH3-swapped baits, to BOI2 / Protein-protein interaction distance between Abp1 SH3-swapped baits, to BUD14 / Protein-protein interaction distance between Abp1 SH3-swapped baits, to BZZ1-1 / Protein-protein interaction distance between Abp1 SH3-swapped baits, to BZZ1-2 / Protein-protein interaction distance between Abp1 SH3-swapped baits, to CDC25 / Protein-protein interaction distance between Abp1 SH3-swapped baits, to CTTN / Protein-protein interaction distance between Abp1 SH3-swapped baits, to CYK3 / Protein-protein interaction distance between Abp1 SH3-swapped baits, to DBNL / Protein-protein interaction distance between Abp1 SH3-swapped baits, to FUS1 / Protein-protein interaction distance between Abp1 SH3-swapped baits, to HCLS1 / Protein-protein interaction distance between Abp1 SH3-swapped baits, to HOF1 / Protein-protein interaction distance between Abp1 SH3-swapped baits, to HSE1 / Protein-protein interaction distance between Abp1 SH3-swapped baits, to LSB1 / Protein-protein interaction distance between Abp1 SH3-swapped baits, to LSB3 / Protein-protein interaction distance between Abp1 SH3-swapped baits, to MYO3 / Protein-protein interaction distance between Abp1 SH3-swapped baits, to MYO5 / Protein-protein interaction distance between Abp1 SH3-swapped baits, to NBP2 / Protein-protein interaction distance between Abp1 SH3-swapped baits, to PEX13 / Protein-protein interaction distance between Abp1 SH3-swapped baits, to PIN3 / Protein-protein interaction distance between Abp1 SH3-swapped baits, to RVS167 / Protein-protein interaction distance between Abp1 SH3-swapped baits, to SDC25 / Protein-protein interaction distance between Abp1 SH3-swapped baits, to SHO1 / Protein-protein interaction distance between Abp1 SH3-swapped baits, to SLA1-1 / Protein-protein interaction distance between Abp1 SH3-swapped baits, to SLA1-2 / Protein-protein interaction distance between Abp1 SH3-swapped baits, to SLA1-3 / Protein-protein interaction distance between Abp1 SH3-swapped baits, to YSC84: sheet Fig2C; for Protein-protein interaction distance between Abp1 SH3-swapped baits, to BBC1: distance to Abp1 bait with BBC1 SH3; for Protein-protein interaction distance between Abp1 SH3-swapped baits, to BEM1-1: distance to Abp1 bait with BEM1-1 SH3; for Protein-protein interaction distance between Abp1 SH3-swapped baits, to BEM1-2: distance to Abp1 bait with BEM1-2 SH3; for Protein-protein interaction distance between Abp1 SH3-swapped baits, to BOI1: distance to Abp1 bait with BOI1 SH3; for Protein-protein interaction distance between Abp1 SH3-swapped baits, to BOI2: distance to Abp1 bait with BOI2 SH3; for Protein-protein interaction distance between Abp1 SH3-swapped baits, to BUD14: distance to Abp1 bait with BUD14 SH3; for Protein-protein interaction distance between Abp1 SH3-swapped baits, to BZZ1-1: distance to Abp1 bait with BZZ1-1 SH3; for Protein-protein interaction distance between Abp1 SH3-swapped baits, to BZZ1-2: distance to Abp1 bait with BZZ1-2 SH3; for Protein-protein interaction distance between Abp1 SH3-swapped baits, to CDC25: distance to Abp1 bait with CDC25 SH3; for Protein-protein interaction distance between Abp1 SH3-swapped baits, to CTTN: distance to Abp1 bait with CTTN SH3; for Protein-protein interaction distance between Abp1 SH3-swapped baits, to CYK3: distance to Abp1 bait with CYK3 SH3; for Protein-protein interaction distance between Abp1 SH3-swapped baits, to DBNL: distance to Abp1 bait with DBNL SH3; for Protein-protein interaction distance between Abp1 SH3-swapped baits, to FUS1: distance to Abp1 bait with FUS1 SH3; for Protein-protein interaction distance between Abp1 SH3-swapped baits, to HCLS1: distance to Abp1 bait with HCLS1 SH3; for Protein-protein interaction distance between Abp1 SH3-swapped baits, to HOF1: distance to Abp1 bait with HOF1 SH3; for Protein-protein interaction distance between Abp1 SH3-swapped baits, to HSE1: distance to Abp1 bait with HSE1 SH3; for Protein-protein interaction distance between Abp1 SH3-swapped baits, to LSB1: distance to Abp1 bait with LSB1 SH3; for Protein-protein interaction distance between Abp1 SH3-swapped baits, to LSB3: distance to Abp1 bait with LSB3 SH3; for Protein-protein interaction distance between Abp1 SH3-swapped baits, to MYO3: distance to Abp1 bait with MYO3 SH3; for Protein-protein interaction distance between Abp1 SH3-swapped baits, to MYO5: distance to Abp1 bait with MYO5 SH3; for Protein-protein interaction distance between Abp1 SH3-swapped baits, to NBP2: distance to Abp1 bait with NBP2 SH3; for Protein-protein interaction distance between Abp1 SH3-swapped baits, to PEX13: distance to Abp1 bait with PEX13 SH3; for Protein-protein interaction distance between Abp1 SH3-swapped baits, to PIN3: distance to Abp1 bait with PIN3 SH3; for Protein-protein interaction distance between Abp1 SH3-swapped baits, to RVS167: distance to Abp1 bait with RVS167 SH3; for Protein-protein interaction distance between Abp1 SH3-swapped baits, to SDC25: distance to Abp1 bait with SDC25 SH3; for Protein-protein interaction distance between Abp1 SH3-swapped baits, to SHO1: distance to Abp1 bait with SHO1 SH3; for Protein-protein interaction distance between Abp1 SH3-swapped baits, to SLA1-1: distance to Abp1 bait with SLA1-1 SH3; for Protein-protein interaction distance between Abp1 SH3-swapped baits, to SLA1-2: distance to Abp1 bait with SLA1-2 SH3; for Protein-protein interaction distance between Abp1 SH3-swapped baits, to SLA1-3: distance to Abp1 bait with SLA1-3 SH3; for Protein-protein interaction distance between Abp1 SH3-swapped baits, to YSC84: distance to Abp1 bait with YSC84 SH3; for PPIs gained by Abp1 - SH3-dependent PPIs gained by Abp1 / SH3-dependent PPIs - SH3-dependent PPIs gained by Abp1 / SH3-dependent PPIs gained by Abp1: number of PPIs, Abp1 SH3-swapped with the listed SH3, Fig2D,S2F; for PPIs gained by Abp1 - SH3-dependent PPIs gained by Abp1 / SH3-dependent PPIs - SH3-dependent PPIs gained by Abp1: difference; for SH3-dependent PPIs gained by Abp1: DHFR-PCA
Procedure, shortened: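 Interactions were scored by DHFR protein-fragment complementation. DHFR F[1,2]-tagged Abp1 strains, whose SH3 was swapped for yeast or human ortholog domains, were crossed on YPD at 30 °C for 48 h with a 1536-format array of 575 prey-DHFR F[3] strains and 40 negatives, giving four replicates per pair. PCA selection lasted 4 days after double diploid selection.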

Molecule | Protein-protein interaction distance between Abp1 SH3-swapped baits, to ABP1 | Protein-protein interaction distance between Abp1 SH3-swapped baits, to BBC1 | Protein-protein interaction distance between Abp1 SH3-swapped baits, to BEM1-1 | Protein-protein interaction distance between Abp1 SH3-swapped baits, to BEM1-2 | Protein-protein interaction distance between Abp1 SH3-swapped baits, to BOI1 | Protein-protein interaction distance between Abp1 SH3-swapped baits, to BOI2 | Protein-protein interaction distance between Abp1 SH3-swapped baits, to BUD14 | Protein-protein interaction distance between Abp1 SH3-swapped baits, to BZZ1-1 | Protein-protein interaction distance between Abp1 SH3-swapped baits, to BZZ1-2 | Protein-protein interaction distance between Abp1 SH3-swapped baits, to CDC25 | Protein-protein interaction distance between Abp1 SH3-swapped baits, to CTTN | Protein-protein interaction distance between Abp1 SH3-swapped baits, to CYK3 | Protein-protein interaction distance between Abp1 SH3-swapped baits, to DBNL | Protein-protein interaction distance between Abp1 SH3-swapped baits, to FUS1 | Protein-protein interaction distance between Abp1 SH3-swapped baits, to HCLS1 | Protein-protein interaction distance between Abp1 SH3-swapped baits, to HOF1 | Protein-protein interaction distance between Abp1 SH3-swapped baits, to HSE1 | Protein-protein interaction distance between Abp1 SH3-swapped baits, to LSB1 | Protein-protein interaction distance between Abp1 SH3-swapped baits, to LSB3 | Protein-protein interaction distance between Abp1 SH3-swapped baits, to MYO3 | further results
B1 | 30.98 | 29.63 | 23.16 | 6.415 | 26.74 | 25.74 | 21.88 | 30.35 | 27.6 | 10.42 | 25.67 | 10.8 | 29.45 | 21.29 | 32.71 | 0.00 | 29.42 | 35.15 | 34.67 | 33.94 | Protein-protein interaction distance between Abp1 SH3-swapped baits, to MYO5: 33.29; Protein-protein interaction distance between Abp1 SH3-swapped baits, to NBP2: 21.63; Protein-protein interaction distance between Abp1 SH3-swapped baits, to PEX13: 33.79; Protein-protein interaction distance between Abp1 SH3-swapped baits, to PIN3: 32.38; Protein-protein interaction distance between Abp1 SH3-swapped baits, to RVS167: 32.19; Protein-protein interaction distance between Abp1 SH3-swapped baits, to SDC25: 7.905; Protein-protein interaction distance between Abp1 SH3-swapped baits, to SHO1: 29.05; Protein-protein interaction distance between Abp1 SH3-swapped baits, to SLA1-1: 9.015; Protein-protein interaction distance between Abp1 SH3-swapped baits, to SLA1-2: 20.72; Protein-protein interaction distance between Abp1 SH3-swapped baits, to SLA1-3: 35.48; Protein-protein interaction distance between Abp1 SH3-swapped baits, to YSC84: 34.92; PPIs gained by Abp1 - SH3-dependent PPIs gained by Abp1: 1; SH3-dependent PPIs - SH3-dependent PPIs gained by Abp1: 4; SH3-dependent PPIs gained by Abp1: 0
B2 | 9.43 | 7.295 | 11.1 | 30.97 | 7.847 | 11.78 | 14.54 | 5.175 | 7.81 | 24.19 | 9.154 | 25.16 | 5.82 | 16.23 | 9.236 | 29.42 | 0.00 | 12.02 | 12.29 | 11.17 | Protein-protein interaction distance between Abp1 SH3-swapped baits, to MYO5: 10.84; Protein-protein interaction distance between Abp1 SH3-swapped baits, to NBP2: 13.88; Protein-protein interaction distance between Abp1 SH3-swapped baits, to PEX13: 8.715; Protein-protein interaction distance between Abp1 SH3-swapped baits, to PIN3: 9.808; Protein-protein interaction distance between Abp1 SH3-swapped baits, to RVS167: 7.315; Protein-protein interaction distance between Abp1 SH3-swapped baits, to SDC25: 31.59; Protein-protein interaction distance between Abp1 SH3-swapped baits, to SHO1: 5.64; Protein-protein interaction distance between Abp1 SH3-swapped baits, to SLA1-1: 27.26; Protein-protein interaction distance between Abp1 SH3-swapped baits, to SLA1-2: 16.63; Protein-protein interaction distance between Abp1 SH3-swapped baits, to SLA1-3: 11.86; Protein-protein interaction distance between Abp1 SH3-swapped baits, to YSC84: 12.83; PPIs gained by Abp1 - SH3-dependent PPIs gained by Abp1: 4; SH3-dependent PPIs - SH3-dependent PPIs gained by Abp1: 1; SH3-dependent PPIs gained by Abp1: 0
